{"source": "the DeepSol protein solubility set"}
{"experiment": "soluble on expression in E. coli; label from the status in PepcDB or PDB records"}
{"sequence": "MSDDPIAASQAVVLSQAQAQNSQYALARTFATQKVSLEESVLSQVTTAIQTAQEKIVYAGNGTLSDDDRASLATDLQGIRDQLMNLANSTDGNGRYIFAGYKTEAAPFDQATGGYHGGEKSVTQQVDSARTMVIGHTGAQIFNSITSNAVPEPDGSDSEKNLFVMLDTAIAALKTPVEGNNVEKEKAAAAIDKTNRGLKNSLNNVLTVRAELGTQLSELSTLDSLGSDRALGQKLQMSNLVDVDWNSV", "soluble on expression in E. coli": "soluble"}
{"sequence": "SHSKLRIKKEIEPIVSALTFLSQGQSAALNEKGNFSEIKTALNETSHILEESNMMKEQWIRGVSHDLRNPLMLISGYTSQLEQQYGHGKQTEQIENQIQNMKEMISNLNLSYLLDNQKRHSKFSSLDLAVVLRSVIADILNNYETVILHFDLPTEAVLVKGDATLLERAFRNLLLNSIKHSGSNQIDLTYQLFDNKVIIIIADKGTITAQKIVELNQKSTNYESHGMGTVITKQIIKLHQGETVFSDNHPGLKVTIVLPVTDEF", "soluble on expression in E. coli": "not soluble"}
{"sequence": "MSTPSVHCLKPSPLHLPSGIPGSPGRQRRHTLPANEFRCLTPEDAAGVFEIEREAFISVSGNCPLNLDEVQHFLTLCPELSLGWFVEGRLVAFIIGSLWDEERLTQESLALHRPRGHSAHLHALAVHRSFRQQGKGSVLLWRYLHHVGAQPAVRRAVLMCEDALVPFYQRFGFHPAGPCAIVVGSLTFTEMHCSLRGHAALRRNSDR", "soluble on expression in E. coli": "soluble"}
{"sequence": "MNQPFLSVVIATFNVAEVLRECLHSLASQTFRDFEVVIQDGASTDGTLAVAQEAAGRLPRLSLASVADSGIYDAWNRALPRVTGDWVLFLGSDDTLAGPDVLAQCARRLADLPPQVLYACGDALEVYPDGSSRAVTCTAEGATRRMADHIPFCHSSLWHRACLFEARHFDATLRIAADYDLICRTWPHDGVGHTLGITVTHMGVGGVSSSPAHRLRTQWELVRVAARHGHGAFSRRRLVPLCKAVGLWVLCRLAGRRASVMLDRLRVMRGLPPCWTTADPARVGGRDSARGDALEHHHHHH", "soluble on expression in E. coli": "not soluble"}
{"sequence": "MAGDPMSRPPVPPFTCKTAIEKVRLAEDGWNSRDAAKVALAYTVDTRWRNRVEFATNREEAQAFLTRKWNREHEYRLIKELWAFTGNRIAVRYAYEYRDDNGQWFRAYGNENWEFAEDGLMAHRHACINEMPIAESDRLYHWPLGRRPDDHPSLTDLGLLEHHHHHH", "soluble on expression in E. coli": "not soluble"}
{"sequence": "MGSDKIHHHHHHMRILLTGIPSYLQRTVSGVSGAEVRHRPYFDEVRTKKELIEQVKKIANTGNYLIGEGAAHALRGHDVTYLPFWHLVNSRNSDEAYESLNEEFDICVFASANLLRPGYSADLEAEVFEKLKMPVVIMGIGIQRREGLKENLPAGTLKFLEVLRNKESFFLTRGYFTAEFLREQGMKFVKPTGCPSLFFAPAEMKRSLAALANPELASSQKIAFGGYLGSVADTIVDAHALLKPDSVASYVIQDEVVAYNLSLPVDDDLPVYDRASGRITGQTAYKHSEKWQRKHELLVFFDTNQWRSWVSARDLCFGRRFHGCIIGMQAGVPSLMIAVDDRMREMLEFIGFPYMEAAVWNREQDRKAYLASFLSKIDSQAVIDRYSACETNFRNALAHVGL", "soluble on expression in E. coli": "not soluble"}
{"sequence": "MGSDKIHHHHHHMEIFGKTFREGRFVLKEKNFTVEFAVEKIHLGWKISGRVKGSPGRLEVLRTKAPEKVLVNNWQSWGPCRVVDAFSFKPPEIDPNWRYTASVVPDVLERNLQSDYFVAEEGKVYGFLSSKIAHPFFAVEDGELVAYLEYFDVEFDDFVPLEPLVVLEDPNTPLLLEKYAELVGMENNARVPKHTPTGWCSWYHYFLDLTWEETLKNLKLAKNFPFEVFQIDDAYEKDIGDWLVTRGDFPSVEEMAKVIAENGFIPGIWTAPFSVSETSDVFNEHPDWVVKENGEPKMAYRNWNKKIYALDLSKDEVLNWLFDLFSSLRKMGYRYFKIDFLFAGAVPGERKKNITPIQAFRKGIETIRKAVGEDSFILGCGSPLLPAVGCVDGMRIGPDTAPFWGEHIEDNGAPAARWALRNAITRYFMHDRFWLNDPDCLILREEKTDLTQKEKELYSYTCGVLDNMIIESDDLSLVRDHGKKVLKETLELLGGRPRVQNIMSEDLRYEIVSSGTLSGNVKIVVDLNSREYHLEKEGKSSLKKRVVKREDGRNFYFYEEGERE", "soluble on expression in E. coli": "soluble"}
{"sequence": "MMDGDIIGENEDGIGVDVSDNNEIIHEISIEKGSWEIVYHEQDGYPDKAAKRTPDGNEHVNQARRFARYHVYKERGYETFPWDEHIGYIETVGDAIKSLSTEEFEDYFGEFYETVAGSLSLNSGGDITALFAAIQEKANAYYIDVYLDNDGQVEATSEVRQIIPTDDWQEELESPPEDTDRVPD", "soluble on expression in E. coli": "not soluble"}
{"sequence": "MDTYQNMNFHDNINSNIPKNYNSFYEELKKNLNESDILTIAYEVEVLKNIKKINCDEIGKNWDYSFIDSEYGKSTLVILEVGYHLISPYIENNENKKKKLQLFLLLINSMYFPNPYHNANHGATVCHLSKCLAHITDYDSYLNNTYMICYLIASIAHDVGHPGKTNSYLSETNHILSIRYNDMSILENYHCSITFSILQLIGFDFLINNEDTKLVEKNNYTNMRKFIIELIISTDMKLHFEYVDIFKKRKKSQNFDISDTDAINLGTINIKLADIGHTCLKWKDHAKWTMLVSEEFFSQKRVEELHKNKNIDPLNFSNFGKEDNIDEGMIFNYENIYINYINNINNINTYDYSYIKLNFIHHHDFVKSIPSTQVYFFEIIVMPLIKELQSMEKSKKEITQKVLHNLNINLQTWRLIEKNINLFYNTEKMTGTDYYKNLEKQKLLRGIRLLDIAEEDVISLTKNFKEEIKHG", "soluble on expression in E. coli": "not soluble"}
{"sequence": "MHDAATSMPPQAPSTWADYLAGYRWRGQGEGCSAATVHRLEAARRPTLFVKQEVLSAHAELPAEIARLRWLHGAGIDCPQVLNETQSDGRQWLLMSAMPGDTLSALAQRDELEPERLVRLVAAALRRLHDLDPAACPFDHRLERRLDTVRQRVEAGLVDEADFDDDHRGRSATELYRLLLDRRPAVEDLVVAHGDACLPNLLAEGRRFSGFIDCGRLGVADRHQDLALAARDIEAELGAAWAEAFLVEYGGDIDGERLAYFRLLDEFF", "soluble on expression in E. coli": "soluble"}
{"sequence": "MSLRKVIGIGETILDIIFRNDQPSAAVPGGSVFNGIVSLGRMGVNVCFISETGNDHVGNIILQFMRDNHIPTDHVNVFPDGKSPVSLAFLNEHSDAEYIFYKDYPKQRLDVLFPSINEDDIIVIGSYYALNPVLRDKILELLDIAKEKRAIVYYDPNFRSSHKNEAMKLAPTIIENLEYADIVRGSLEDFYYMYGIKDVEKIYKDKIKFYCPLFLCTAGAERISLRTNAISKEYPVAPLEAVSTIGAGDNFNAGLIYGMLKYDVRYRDLQHLSEETWDKVIQCGQDFAAEVCKSFNNSISGEFAANYREGHHHHHH", "soluble on expression in E. coli": "soluble"}
{"sequence": "AWVDQTPRTATKETGESLTINCVLRDASYGLESTGWYRTKLGSTNEQTISIGGRYVETVNKGSKSFSLRIRDLRVEDSGTYKCGAFRFWLPYGYGSLPLSEKGAGTVLTVK", "soluble on expression in E. coli": "soluble"}
{"sequence": "MASNEARYVLAEEVDFSSPEEVKNWWNSGTWQAEFGSPDIEWNGEVGNGALQLNVKLPGKSDWEEVRVARKFERLSECEILEYDIYIPNVEGLKGRLRPYAVLNPGWVKIGLDMNNANVESAEIITFGGKEYRRFHVRIEFDRTAGVKELHIGVVGDHLRYDGPIFIDNVRLYKRTGGM", "soluble on expression in E. coli": "soluble"}
{"sequence": "MGSDKIHHHHHHMNSLGAVIKEIRKNRKLTQKMLSEDICSQSVLSRIENNEELPNVLVMQQLCDRLGVTVDQIMRYKSGDVHVVTYSFEKMAEYFRHKKYQLLLNYLKENRIEEQLYLDTDWQKYYYYLGSCELFVLNDYEKAIASLRKGLSFTYKADKLNVSDLEIQLISCLGATYGYMGNRVEAERFLSLSIHYFNQLPNERSNAELTKIFFNYADFLFKNYTEKDAEIYVDQGITWARKKNSYYYLSELLNLKYLVLMRKNKHEEAERYLNLAQQMKNVESGNL", "soluble on expression in E. coli": "not soluble"}
{"sequence": "MWERSLRDTMRGRTSTLKVAILCFEKDRPKLEALKEILGRSYEVEFVDYSKDVWDDVLQYDCIVAYLASGIVVRGICGRLRGKWKDPAVIVLDKPLKHAVVMLGGHHGGNEVAKKLEEAGLKAVITTAMEFTEGYSVGVGFRKNATADEILEAIAMALEEVGGRMEEIRVISTVDAKRDSAIVEVANRLKRPLIFVRAEEINSMDIRETKAVKIGVKNVAEACAIYASNSGELILPKRVYGGVTVAIAW", "soluble on expression in E. coli": "not soluble"}
